The source of these data is patent US12304939B2, “EGFR and C-met fibronectin type III domain binding molecules” (Janssen Biotech, Inc., priority 2012, dated 2025).

Like-named read-outs stand apart in the source and are kept apart here.

What is called Kd is the constant that tells how readily two partners part at equilibrium.

One data set deals with T1, c-Met-Fc fusion protein (Homo sapiens, UniProt P08581).
T1 construct: recombinant EGFR and/or c-Met extracellular domain
Briefly: c-Met-Fc affinity by surface plasmon resonance (Proteon). Type of data set: binding. Particulars: for binding to c-Met (in words): SPR, serine mutants in ECB15; for ka / kd / Kd: serine mutants of A3 in the context of ECB15; for Kd: read-out: KD. For orientation: In SPR one partner is held on a chip, and binding of the other changes the refractive index at the surface.

Data set [1] can be described thus: Differential scanning calorimetry in PBS (thermal stability). Type of data set: physicochemical. Particulars: DSC in PBS, c-Met-binding FN3 domains. In general terms: In DSC, transitions show as peaks or steps in heat flow.

T1 sequence (P08581 25-932 limits assumed): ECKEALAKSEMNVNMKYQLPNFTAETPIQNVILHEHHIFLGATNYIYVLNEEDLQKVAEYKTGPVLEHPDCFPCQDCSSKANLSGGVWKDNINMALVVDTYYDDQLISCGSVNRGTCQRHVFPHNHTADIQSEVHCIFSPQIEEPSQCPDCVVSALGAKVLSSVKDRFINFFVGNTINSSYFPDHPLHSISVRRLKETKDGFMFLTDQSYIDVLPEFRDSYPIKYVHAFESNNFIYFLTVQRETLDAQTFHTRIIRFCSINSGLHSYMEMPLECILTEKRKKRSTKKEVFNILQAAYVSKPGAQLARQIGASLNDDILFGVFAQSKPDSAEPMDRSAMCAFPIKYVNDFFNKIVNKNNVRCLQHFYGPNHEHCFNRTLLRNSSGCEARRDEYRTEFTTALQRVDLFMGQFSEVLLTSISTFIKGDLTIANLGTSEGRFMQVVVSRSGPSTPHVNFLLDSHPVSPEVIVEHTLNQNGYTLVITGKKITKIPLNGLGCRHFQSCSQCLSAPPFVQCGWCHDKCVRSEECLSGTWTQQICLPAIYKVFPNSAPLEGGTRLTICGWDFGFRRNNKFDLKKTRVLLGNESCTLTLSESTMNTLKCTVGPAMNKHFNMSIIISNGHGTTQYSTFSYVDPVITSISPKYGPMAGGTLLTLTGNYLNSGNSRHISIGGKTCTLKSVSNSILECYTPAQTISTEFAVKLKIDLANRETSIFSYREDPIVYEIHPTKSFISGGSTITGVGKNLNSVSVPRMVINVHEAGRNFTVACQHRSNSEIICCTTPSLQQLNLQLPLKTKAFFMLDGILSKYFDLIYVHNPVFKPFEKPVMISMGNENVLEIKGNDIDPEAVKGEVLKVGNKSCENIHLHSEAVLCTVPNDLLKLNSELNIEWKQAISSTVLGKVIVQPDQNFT

B1: A3 M72S: serine mutant of A3 c-Met domain in ECB15 context, SEQ ID NO: 220 (protein)
chain: LPAPKNLVVSRVTEDSARLSWTAPDAAFDSFWIRYFEFLGSGEAIVLTVPGSERSYDLTGLKPGTEYVVNISGVKGGKISPPLSAIFTT
modifications: c-Met binding FN3 domain
Turning to B1, in the data set with c-Met-Fc fusion protein, the “binding to c-Met (in words)” value was “No binding was measurable”.

B2: A3 F36S: serine mutant of A3 c-Met domain in ECB15 context, SEQ ID NO: 218 (protein)
chain: LPAPKNLVVSRVTEDSARLSWTAPDAAFDSFWIRYSEFLGSGEAIVLTVPGSERSYDLTGLKPGTEYVVNIMGVKGGKISPPLSAIFTT
modifications: c-Met binding FN3 domain
With B2, in the data set with c-Met-Fc fusion protein, the “Fold Change of KD compared to parent” value worked out at 68, the ka is 188000 M⁻¹ s⁻¹, the kd is 0.00512 s⁻¹ and the dissociation constant (Kd) was 27.2 nM.

B3: A3 W32S: serine mutant of A3 c-Met domain in ECB15 context, SEQ ID NO: 219 (protein)
chain: LPAPKNLVVSRVTEDSARLSWTAPDAAFDSFSIRYFEFLGSGEAIVLTVPGSERSYDLTGLKPGTEYVVNIMGVKGGKISPPLSAIFTT
modifications: c-Met binding FN3 domain
Regarding B3, in the data set with c-Met-Fc fusion protein, the “Fold Change of KD compared to parent” value is 74.5, the ka worked out at 289000 M⁻¹ s⁻¹, the kd was determined as 0.0086 s⁻¹ and the Kd was 29.8 nM.

B4: A3 P81S: serine mutant of A3 c-Met domain in ECB15 context, SEQ ID NO: 217 (protein)
chain: LPAPKNLVVSRVTEDSARLSWTAPDAAFDSFWIRYFEFLGSGEAIVLTVPGSERSYDLTGLKPGTEYVVNIMGVKGGKISSPLSAIFTT
modifications: c-Met binding FN3 domain
As for B4, in the data set with c-Met-Fc fusion protein, the “Fold Change of KD compared to parent” value came to 4.25, the ka was determined as 321000 M⁻¹ s⁻¹, the kd amounted to 0.000536 s⁻¹ and the Kd came to 1.7 nM.

B5: P114AR7P92-H5: c-Met-binding FN3 domain, SEQ ID NO: 37 (protein)
chain: LPAPKNLVVSRVTEDSARLSWTAPDAAFDSFWIRYLEFLLGGEAIVLTVPGSERSYDLTGLKPGTEYVVQIMGVKGGTVSPPLSAIFTT
modifications: c-Met binding FN3 domain
With B5, in data set [1], the “Thermal Stability (Tm)” value is 87 C.

B6: A3 N70S: serine mutant of A3 c-Met domain in ECB15 context, SEQ ID NO: 216 (protein)
chain: LPAPKNLVVSRVTEDSARLSWTAPDAAFDSFWIRYFEFLGSGEAIVLTVPGSERSYDLTGLKPGTEYVVSIMGVKGGKISPPLSAIFTT
modifications: c-Met binding FN3 domain
Take B6: in the data set with c-Met-Fc fusion protein, the “Fold Change of KD compared to parent” value is reported as 14.75, the ka is 425000 M⁻¹ s⁻¹, the kd is 0.00249 s⁻¹ and the Kd was 5.9 nM.

B7: A3 I79S: serine mutant of A3 c-Met domain in ECB15 context, SEQ ID NO: 223 (protein)
chain: LPAPKNLVVSRVTEDSARLSWTAPDAAFDSFWIRYFEFLGSGEAIVLTVPGSERSYDLTGLKPGTEYVVNIMGVKGGKSSPPLSAIFTT
modifications: c-Met binding FN3 domain
With B7, the “binding to c-Met (in words)” value with c-Met-Fc fusion protein is listed as “No binding was measurable”.

B8: P114AR7P92-G8: c-Met-binding FN3 domain, SEQ ID NO: 36 (protein)
chain: LPAPKNLVVSRVTEDSARLSWTAPDAAFDSFVIRYFEFLGSGEAIVLTVPGSERSYDLTGLKPGTEYVVQILGVKGGYISIPLSAIFTT
modifications: c-Met binding FN3 domain
On to B8, for which, in data set [1], the “Thermal Stability (Tm)” value was determined as 90.9 C.

B9: A3 F38S: serine mutant of A3 c-Met domain in ECB15 context, SEQ ID NO: 222 (protein)
chain: LPAPKNLVVSRVTEDSARLSWTAPDAAFDSFWIRYFESLGSGEAIVLTVPGSERSYDLTGLKPGTEYVVNIMGVKGGKISPPLSAIFTT
modifications: c-Met binding FN3 domain
With B9, in the data set with c-Met-Fc fusion protein, the “Fold Change of KD compared to parent” value is on record as 1792.5, the ka stood at 45100 M⁻¹ s⁻¹, the kd was found to be 0.0323 s⁻¹ and the Kd turned out to be 717 nM. Moreover, in the data set with c-Met-Fc fusion protein (listed as F38S), the “Fold Change of KD compared to parent” value was “greater than 100”.

B10: A3 G40S: serine mutant of A3 c-Met domain in ECB15 context, SEQ ID NO: 213 (protein)
chain: LPAPKNLVVSRVTEDSARLSWTAPDAAFDSFWIRYFEFLSSGEAIVLTVPGSERSYDLTGLKPGTEYVVNIMGVKGGKISPPLSAIFTT
modifications: c-Met binding FN3 domain
For B10, in the data set with c-Met-Fc fusion protein, the “Fold Change of KD compared to parent” value is on record as 4.25, the ka came out at 185000 M⁻¹ s⁻¹, the kd came out at 0.00032 s⁻¹ and the Kd was determined as 1.7 nM.

B11: A3 K78S: serine mutant of A3 c-Met domain in ECB15 context, SEQ ID NO: 212 (protein)
chain: LPAPKNLVVSRVTEDSARLSWTAPDAAFDSFWIRYFEFLGSGEAIVLTVPGSERSYDLTGLKPGTEYVVNIMGVKGGSISPPLSAIFTT
modifications: c-Met binding FN3 domain
As for B11, in the data set with c-Met-Fc fusion protein, the “Fold Change of KD compared to parent” value stood at 0.75, the ka was 440000 M⁻¹ s⁻¹, the kd stood at 0.00015 s⁻¹ and the Kd was determined as 0.3 nM.

B12: A3 R34S: serine mutant of A3 c-Met domain in ECB15 context, SEQ ID NO: 221 (protein)
chain: LPAPKNLVVSRVTEDSARLSWTAPDAAFDSFWISYFEFLGSGEAIVLTVPGSERSYDLTGLKPGTEYVVNIMGVKGGKISPPLSAIFTT
modifications: c-Met binding FN3 domain
For B12, the “binding to c-Met (in words)” value with c-Met-Fc fusion protein was “No binding was measurable”.

B13: A3 L39S: serine mutant of A3 c-Met domain in ECB15 context, SEQ ID NO: 214 (protein)
chain: LPAPKNLVVSRVTEDSARLSWTAPDAAFDSFWIRYFEFSGSGEAIVLTVPGSERSYDLTGLKPGTEYVVNIMGVKGGKISPPLSAIFTT
modifications: c-Met binding FN3 domain
As for B13, in the data set with c-Met-Fc fusion protein, the “Fold Change of KD compared to parent” value amounted to 6.75, the ka turned out to be 475000 M⁻¹ s⁻¹, the kd worked out at 0.00127 s⁻¹ and the dissociation constant Kd is 2.7 nM.

B14: A3 V68S: serine mutant of A3 c-Met domain in ECB15 context, SEQ ID NO: 215 (protein)
chain: LPAPKNLVVSRVTEDSARLSWTAPDAAFDSFWIRYFEFLGSGEAIVLTVPGSERSYDLTGLKPGTEYSVNIMGVKGGKISPPLSAIFTT
modifications: c-Met binding FN3 domain
Consider B14, for which, in the data set with c-Met-Fc fusion protein, the “Fold Change of KD compared to parent” value is 9, the ka stood at 329000 M⁻¹ s⁻¹, the kd amounted to 0.0012 s⁻¹ and the equilibrium dissociation constant (Kd) was 3.6 nM.
